According to paper PMC4136481:

Biological target: T1, basic region-leucine zipper (B Zip) domain of the transcription factor CCAAT/enhancer binding protein α (C/EBPα) (rat), P05554
T1 chain: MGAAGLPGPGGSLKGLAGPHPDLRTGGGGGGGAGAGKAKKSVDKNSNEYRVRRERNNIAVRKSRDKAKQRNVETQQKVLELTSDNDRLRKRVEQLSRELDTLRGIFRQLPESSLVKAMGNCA
Test: FRET or BRET
Conditions: remark: other sources report otherwise

B1: basic region-leucine zipper (B Zip) domain of the transcription factor CCAAT/enhancer binding protein α (C/EBPα), P05554 237-358 (domain or fragment)
chain: T1 chain
Q: How did the donor fluorescence lifetime τm in the presence of the acceptor, mean turn out when B1 was run?
A: The donor fluorescence lifetime τm in the presence of the acceptor, mean was 2.78 ns.
